Experimental data from a protein production outcome set (Wang et al. 2014).

Assay: label from the status in PepcDB records
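Also: failed if final PepcDB status was selected cloned or expressed and not failed if soluble or beyond.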

Sequence	protein production
RRENHQTIQEFLERIHLQEYTSTLLLNGYETLDDLKDIKESHLIELNIADPEDRARLLSAAESLL	not failed
MLRVTPILLAVLYAFAMYHFSAWRTRRELDARSTELADPALKRLTDRLAAALGVARVPVHIYEIDPVNGLAAPDGRIFITRGFYRKYQSGEVTGEELTSVIAHELGHVALGHSRRRMIDFSGQNAMRTALAMLLGRFIPFFGVWIANMLTTLLAARLSRADEYEADAYAAALLTKAGIGVAPQKALFHKLDALTEQRAGVAPAWLLSHPKTAERIAALDRLEARWQAH	failed
MPETMHDNALTQSCTLVTSPELGTMHAMPTYIATKNGEPTAIAIESIAPDGYNGEIKVITGIDNQGKILGTRVLSHQETPGLGDKIDLRVTSWILGFTGKQVTEDNWNSWKVRKDGGDFDQFTGATITPRAVIKAVRNTVNYVNQSRDEILSQPLEHHHHHH	not failed
LKYILETKLEEERNHLEELLEKVEEDYEGINYDEVLEALKLFKDNYELPKSKIKRKIRIFLIKENILFLNPQKGTLKPQSYLVWNAIKRML	not failed
MAWYEGAFFYQIFPDRFFRAGPPGRPAPAGPFEPWEAPPTLRGFKGGTLWGVAEKLPYLLDLGVEAIYLNPVFASTANHRYHTVDYFQVDPILGGNEALRHLLEVAHAHGVRVILDGVFNHTGRGFFAFQHLMENGEQSPYRDWYHVKGFPLKAYTAHPNYEAWWGNPELPKLKVETPAVREYLLAVAEHWIRFGVDGWRLDVPNEIPDPTFWREFRQRVKGANPEAYIVGEIWEEADFWLQGDMFDAVMNYPLARAVLGFVGGEALDRDLAAQTGLGRIEPLQALAFSHRLEDLFGRYRPEVVRAQMNLLTSHDTPRLLSLMRGSVERARLALALLFLLPGNPTVYYGEEVGMAGGKDPENRGGMVWEEARWQKDLRETVKRLARLRKEHPALRTAPYLRIYAQDGHLAFARGPYLAVVNASPHPFRQDFPLHGVFPRGGRAVDLLSGEVCTPQGGRLCGPVLPPFSLALWREA	not failed
MTNFTQSINFPGSLPLTRNLLAAACFFAMTQASAAGFISDVKQISDQEVRSGEGYYRADGKWLVYQAEVAGENPFYQIYLKNIASGEVQQVSPGIGKTTCSWVHPIQEKVLFSSTHEDPEAKAKMTTEIEQRKSGQRRSYAWDYDEFYDIYETDFAGGNIRNLTHTKGYDAEASWSPDGRLIAFASNRRAYSEPLSEAETVLFSNDPSSMIDIYIMDADGSNVKRLTHTNSYDGGPFFSPDGKRIVWRRFSENGQEAEIFTMNTDGSDQKQITRLNKMSWAPFYHPSNQYIIFATNVHGHRNFELYIVDIDGKKEPVRVTDEEGFDGLPVFTPDGQYITWTSDRTPDHKGRLFHGKWDHKKALESLGLE	failed
MKLKWWQRLLPRSAFSQTVLLIGCLLLINQLVSYVTVAVYVLKPSYQQINQLIARQINLLFVDGIDIGREHLTIVDALNAKVRDDGMKVYNQQQAREAGIEQATYYGFWSSQMTEYLGGDAEVRVTHGRVLQVWIRPPQAPSVWIKVPLIGQNVSDLSPLTLYLMVIGALSVAGGWWFARQQNRPLRRLQKAAISVSRGEFPDPLPLKGSSELVEVTNAFNQMAHSMKQLEQDRALLMAGISHDLRTPLTRIRLASEMMVEDDQYLKDGIVNDIEDMDAIISQFIAYIRQDQEASREPGQINKLIQDIAQAEANRDGEIELALADCPEALFQGLAIKRVLSNLVENAFRYGSGWVRISSQFDGKRIGFSVEDNGPGIDESQIPTLFQPFTQGDIARGSVGSGLGLAIIKRIIDRHQGQITLSNRAAGGLKAQVWLPRE	failed
MKDFFKDQFFKALEKNTIFSRADVQGNLIFVSDKLCQISGYSKKELIGKKHSIFKHPDVEECYIEELLKKLSYKKPYQVIFKNIDKLGKTFYLETLLIPILDKNNELIEIVAFSHDVSNSFKLNEELALNHAKLRELSINLENTVKNHQQEFIQLGKKFEKKMQIALEKNEKDIKIAYEEILKSSLEQMISDIAHQWRQPLNELGIAMFQMKQNLKDEKGFAEIYSQSKDMIKNMSETIDVFRTLFNKGVEQCVFIKETLNKALEIAFETIEKNHVNINIVSKSDYEVLAYENGLIRVFLNLILNSIEAFKNKKRKIITINFSKFGKNYLKITIKDNAGGIDKENLDKIFQPYFTTKHPSQGIGVGLYISRQIIESFQGKIKVKNGKDGACFEIFLKLKERVE	failed
QGKLLELVTFVPTEYADAVRQALWQAGAGRLGHYDCCSFSHAGTGTFRAAEGANPFVGAISELHHEAEERISLVLPAYRQGTVLQALHAAHPYELPAVSLIPLANDHPSAGGGIVGDLPSPISEREMLLHIKEVFGLKVLSHSAWRERPLRRMAICGGSGAFMWRRAAQEGADLFLTGEAKYNDFFDAGEHLLLVTIGHYESEEVANELFMRIISQKFPTFATHKSSVATNPVNYL	failed
MKANFGYITPVPLNMELIDISLSKTQKRTPTVIHPQYNIVKIRMFYMRKVKHAGNEFASRLGTILTDFPRIEDIHPFYGDLINVLYDRDHYKLALGHVNAAKNGIEKVSKEFVKLLKFADSLYRCKQLKRAALGRMASAAKKLGKTLEYLEEVRMHMSRLPSIDLSGRTLLVCGFPNVGKSSFVRKISRADVEVQPYPFTTKSLYVGHFDYKYLQWQVIDTPGILDQPLENRNTIEMLSITALAHIKAVVLYFIDLSETCGYSVEEQMDLFNTLNPLLSSNMVIVLSKSDVLGLSGMEDKKAIMSFLEGKKYMEMSCEKEENIDAVKAMACDLLLDERFERKINSERLSEYINRITIVRPKELREKAESFICSREVTEIENEQERYLIPEEYRYDIVPEIVDGKNVADFFDPDIEKKLKEVEEEEEGLLPMYCKTYDVLSPEERALKEEVVAGIERRRIINRLREKKRLPDSWKHRSRNSGGDIAVHVRRDSKTQVAQPPRLPSKKKARFDDKHYYDRKPKHLYRGRK	failed
NAMVLREDIDKLKLLAQQFEQELQAYNTRIGNLETRIAYLEDRQFSVTTKLTGDSIWVLSGVGGSEQADGPPDQPVQNGEVTVNFRQRINFNTSFSGEDNLLIRLQSANFFLARGGSNLTDFNFAATEEQGNVNINKMQYSFPVGDRARIWLAGNRITMDDIMDPLAPYTNSFTDGAVSFFGAIAPIYLPNDNSGPGAGFSYNFTDDLSLGGFYSAGKGFSPNQSEGLFNGQFGVGAQLNYVPAANTGVAFSYLHNYIPQGQYDSFSALGYTGLANTDNPFDDAASSTNHYAVIWTWQLADWFSLEGWGMYSDATAKSGDRQGDTADIWNWKVSLAFPDLGKEGNVGVVSVGQPPYASFISNNNNVPDITPATTDAPWFVETFYLYQFNDNISLTPAFWIGINPANGRDPLWVAALRTSFKF	failed
MINKTLLQKRFNGAAVSYDRYANVQKKMAHSLLSILKERYSETASIRILELGCGTGYVTEQLSKLFPKSHITAVDFAESMIAIAQTRQNVKNVTFHCEDIERLRLEESYDVIISNATFQWLNNLQQVLRNLFQHLSIDGILLFSTFGHETFQELHASFQRAKEERNIKNETSIGQRFYSKDQLLHICKIETGDVHVSETCYIESFTEVKEFLHSIRKVGATNSNEGSYCQSPSLFRAMLRIYERDFTGNEGIMATYHALFIHITKEGKR	failed
MDASTSFAILPSNVKQKTAFPRKINQVKTASWANNCLTGTLDVGHFSCYFVNEKIARVTVNPFGEADLTPSIAAINDTEKQAAVFTETNDHYELQFADKKLIVSKNPFQIIMKQAGKTIFQTEGLAINRDKEHQISIQSKPGTAIFGLGEKTGALNKAGSIISMWNTDVYSPHNKDTVELYQSIPFMIADTEETTYGLFYDNSHRTEFDFQSFEEMYTILAEGGQANLYVIFGEDVKEVVANYTNLTGKTPLPPKWSLGYHQSRYSYTSEEEVERIANTFKEKEIPLDCVFMDIHYMDDFRVFTFNPDTFPNGPELIARLREQNIDVVPIVDPGIKKDVNYSVYQEGIKHHYFCRKLEGAIYYGDVWPGVSAFPDFLSTTVQRWWGDLHQFYTDLGIRGIWNDMNEPSVFNESKTMDLDVVHNMDGKNVTHKEAHNLYGLYMSKATFEGLKRLVPNERPFSLTRAGYAGVQRYSAVWTGDNRSHWEHLEMSLPMIMNLGLSGVAFTGADVGGFSSDCTKEMLIRWTQAGAFLPYFRNHCVQDSIYQEPWAFGLDAEKIVKKYIEMRYTFLPYIYTEFQKTAENGLPIVRPLYMEFKEERDLIQVNDQFMLGENILVAPIVREGQVKRLVRLPKGTWFNYWTKEQVEGGDYIIADAPIDVMPIYIKAGTILPLGTSVQNTKEAQDLALEIYLDNDEASGYVYNDDGKSYQYESGKISKTAFTATFKNGEVQINGDHHGEENLQQKVTTIEVFGKKIDKITRAGI	failed
MVIQIVIISPGDGNLSPAHLLHRFALSLLESLRGKKMMFVGTEEMYLSLICLLHSQIPENYKSMDYLWITHRLLSQDLEILVDYNAMIEFYWAPFLLESNSDNAIVDIVSDRIMRKGLINKHGKHWRGADIVVESSFKDGNKRIVEMESEDAYLMTMGKWVKKSMDPLRTKVFFSTMSPTHYKIEDWGGEQGKNFYNQTTPIQDMNHWPSDCSKTLMKVIGEELDQRADFLVTVLNITQLTSYRKDAHTSIYKKPWSPYDEGSASKSG	failed
MSRFPRRFIDDSSMEDAGISLCPSIHYRPINPNDLDRLEQIHRDIFPIKYESEFFQSVVNGVDIVSWAAVDRSRPDDHSDELIGFVTAKFVLAKDSEIDDLIHYDSSKGEETLIYILTLGVVETYRNRGIAMSLISEVIKYASGLSVCRGVYLHVIAHNNAAICLYKRLMFRCVRRLHGFYLINRHHFDAFLFVYFINGSRTPCSPLEVAMFVVNYMKSGIKSVASKLANKDEKGLKWLFCKDTDCV	failed
MSLKIAAFGEVMLRFTPPEYLMLEQTEQLRMNFVGTGVNLLANLAHFQLETALITKLPANRLGEAGKAALRKLGISDQWVGEKGDHIGSFFAEMGYGIRPTQVTYQNRHQSAFGISEAKDYDFEAFLAEVDMVHICGISLSLTEKTRDAALILAQKAHAYQKKVCFDFNYRPSLNTANSALFMRQQYERILPYCDIVFGSRRDLVELLGFIPREDLEGEAQETELIQRFMSQYNLEWFAGTTRSHSQNQNYLSGYLYTQNEYQQSEKRPLLNLDRIGAGDAYAAGILYGYSQNWSLEKAVTFATVNGVLAHTIQGDIPLTTVKQVNHVLEHPNIDLIREGHHHHHH	not failed
MNIKINEKWREVKENCTVYALKNEEFPDSHVIVLNGFPLVEDKKLKDGDRIVFIKKGIMPNKEELEELMVSRHTPGIHEKLKRIKVLIAGCGGLGSNIAISLGRIGVGSISLVDFDIVEPSNLNRQQYYIEDIGEFKVTALKRNLIRINPFIKIEALNLKLSEDNMGILQGADIIIEAFDNPDYKALLANYVLGNMKDKFLISSSGMAGFYDSNLIKTKQITDKFYICGDLVNEAKEGCGLMAPRVAICANHMANLVIDIAINKIEFQK	failed
MGLFQSDKAAEEIDPPQDVTFVNDEAGANSNTTAAKKTESEKSDTAKADQASSTVMRELYLIDKNGYVVAQTLPLPKSESTAKQALEYLVQGGPVSEILPNGFRAVLPADTTVNVDIKKDGTAIADFSNEFKNYKKEDEQKIVQSVTWTLTQFSSIDKVKLRINGHELKEMPVGGTPISDDLSRKDGINLETAGVNDLTATHPLTVYYLAENEDSEYYVPVTKRIDNSEKDDITAAINELAKGPSKVSGLLTDFSEDVKLVSKPKIKDGRVTLDFNQSIFGSADEKTKMISSEVLNSIVLTLTEQPDVKSVSVKVNGKSELVNEKGEKLTEPVSRPSQVNTGSFLEHHHHHH	not failed
MMTKYGVVGTGYFGAELARFMSKVEGAKITAIYDPVNAAPIAKELNCVATATMEALCSHPDVDCVIIASPNYLHKAPVIAAAKAGKHVFCEKPIALNYQDCKDMVDACKEAGVTFMAGHVMNFFHGVRHAKALIKAGEIGEVTQVHTKRNGFEDVQDEISWKKIRAKSGGHLYHHIHELDCTLFIMDETPSLVSMAAGNVAHKGEKFGDEDDVVLITLEFESGRFATLQWGSSFHYPEHYVLIEGTTGAILIDMQNTAGYLIKAGKKTHFLVHESQAEDDDRRNGNISSEMDGAIAYGKPGKRTPMWLSSIMKLEMQYLHDVINGLEPGEEFAKLLTGEALEHHHHHH	failed
HARPAGQLKVHSMPGVGQHYVIDAIARYRRNHPDVAFDLTMTHRVPDLLEEGFDVSIVLASELADSGFVSQRLGITYSIVCASPEYVKTFGMAHKPADLLNHACLRLVSPVFP	failed
